{"source": "patent US20170114108A1", "target": "H4 tail (residues 1-30) of the H4ac indicator (UniProt P62805)", "assay": "cell-based or functional assay", "data": [{"sequence": "TATA binding protein (TBP)-associated factor II (TAFII) bromodomain", "values": [{"measurement": "percent of cells discriminated from autofluorescence (FACS), H4ac indicator, 1 µM SAHA", "value": "5 % of cells"}, {"measurement": "percent of cells discriminated from autofluorescence (FACS), H4ac indicator, 2.5 µM SAHA", "value": "20 % of cells"}, {"measurement": "percent of cells discriminated from autofluorescence (FACS), H4ac indicator, 7.5 µM SAHA", "value": "40 % of cells"}, {"measurement": "percent of cells discriminated from autofluorescence (FACS), H4ac indicator, 10 µM SAHA", "value": "45 % of cells"}]}]}
